In patent US20150267232A1, “IN VIVO AND IN VITRO CARBENE INSERTION AND NITRENE TRANSFER REACTIONS CATALYZED BY HEME ENZYMES” (California Institute of Technology, priority 2012, published 2015):

Tests used:
[1] = N—H insertion, aniline with ethyl diazo acetate (EDA); type: biochemical; conditions: protein 10 uM, EDA 8.5 mM, aniline 20 mM, Na2S2O4 10 mM, 12 h
From the text: We have found a variety of P450 variants to be general catalysts for carbenoid N—H insertion. We combined aniline with EDA in the presence of a reductant (Na2S2O4) under argon atmosphere and tested the mixture with seven P450BM3 variants previously identified as competent catalysts for cyclopropanation (Coelho, P. et al., Science. 2013, 339, 307-310). In choosing this set of P450s, we hypothesized that cyclopropanation activity could correlate with ability to generate the iron-carbenoid intermediate that is also necessary for N—H insertion. Whereas wild type BM3 (WT-BM3 (SEQ ID NO:1), Table 20, entry 1) provided only trace amounts of the desired product (4.3), a few variants gave 4.3 in good yields after 12 h at room temperature. In particular, variant H2-5-F10 which is derived from a thermostable P450BM3 lineage (Lewis, J. C. et al. ChemBioChem, 2010, 11, 2502-2505) and contains 15 mutation from WT-BM3 (SEQ ID NO:1), formed 4.3 in 47% yield and 473 turnovers (TTN) using 0.1% protein relative to EDA (entry 7). […] In contrast, when 1 mol % of the isolated hemin prosthetic group was used as catalyst, the single and double insertion products were produced in a 3.5 to 1 ratio (with a total product yield of 51%).
A representative procedure for P450-catalyzed N—H insertion is as follows. To an unsealed crimp vial, 60 μL of a P450 solution (67 or 133 μM) was added and the vial was sealed. A 12.5 mM solution of sodium dithionite in phosphate buffer (0.1 M, pH=8.0) was degassed by bubbling with argon in a 6 mL crimp-sealed vial. The headspace of the 2 mL vials containing P450 solution were flushed with argon (no bubbling). The buffer/dithionite solution (360 μL) was then added to each reaction vial via syringe, and the gas lines were disconnected from the vials. 10 μL of an 800 mM stock of aniline was added via a glass syringe, followed by 10 μL of a 340 mM stock of EDA (both stocks in MeOH). The reaction vials were then placed in a tray on a plate shaker and left to shake at 40 rpm. The final concentrations of the reagents were typically: 20 mM aniline, 8.5 mM EDA, 10 mM Na2S2O4, and 10 or 20 μM P450. After 12 h at 25° C., the vials were removed from the shaker and uncapped and 1 mL of cyclohexane was added, followed by 20 μL of a 20 mM solution of phenethyl alcohol (internal standard). The mixture was transferred to a 1.5 mL Eppendorf tube and vortexed and centrifuged (13,000×g, 1 min.). The organic layer was dried over sodium sulfate if necessary then analyzed by GC, with comparison to an authentically prepared sample that has been verified by proton NMR ([…], Varian, CDCl3).
Substitution is well-tolerated on the aniline partner on both the ortho and para positions. Reactions were analyzed by a Shimadzu GC with FID detector and J&W HP-5 column (30 m×0.32 mm, 0.25 μm film) and calibrated to an independently prepared sample of each product using phenethyl alcohol as internal standard. Reaction of aniline and EDA was also performed in milligram scale without any organic cosolvent to provide 4.3 in 65% isolated yield.
Calibration curves were plotted as follows. Yields of N—H insertion products were determined using calibration curves made with independently synthesized standards that have been verified by proton NMR, with comparison to known literature data (Baumann, L. K. et al. Organometallics. 2007, 26, 3995-4002; Anding, B. J. et al. Organometallics. 2013, 32, 2599-2607). Two stock solutions of product were made at 160 mM and 40 mM. To four or five samples containing 380 μL of buffer, product was added from either of the stock solutions such at a final concentration of 0.5-8.0 mM in 400 μL was obtained. 20 μL of internal standard was added to each eppendorf tube, then 1 mL of cyclohexane was added and the tubes were vortexed and centrifuged (13,000 ×g, 30 seconds). The organic layer was then analyzed by GC. The ratio of the areas under the internal standard and product peaks were plotted against the concentration for each solution. […]

[2] = P450BM3 compilation plate screen (GC, cyclopropane peaks); type: biochemical; conditions: P450BM3 variants

B1: H2A10: 9-10A TS + F87V, L75A, L181A, T268A (protein, listed as Bacillus megaterium)
chain: TIKEMPQPKTFGELKNLPLLNTDKPVQALMKIADELGEIFKFEAPGRVTRYLSSQRLIKEACDESRFDKNLSQAAKFARDFAGDGLVTSWTHEKNWKKAHNILLPSFSQQAMKGYHAMMVDIAVQLVQKWERLNADEHIEVSEDMTRLTLDTIGLCGFNYRFNSFYRDQPHPFIISMVRAADEVMNKLQRANPDDPAYDENKRQFQEDIKVMNDLVDKIIADRKARGEQSDDLLTQMLNGKDPETGEPLDDGNIRYQIITFLIAGHEATSGLLSFALYFLVKNPHVLQKVAEEAARVLVDPVPSYKQVKQLKYVGMVLNEALRLWPTAPAFSLYAKEDTVLGGEYPLEKGDEVMVLIPQLHRDKTVWGDDVEEFRPERFENPSAIPQHAFKPFGNGQRACIGQQFALHEATLVLGMMLKHFDFEDHTNYELDIKETLTLKPKGFVVKAKSKKIPLGGIPSPSTEQSAKKVRKKAENAHNTPLLVLYGSNMGTAEGTARDLADIAMSKGFAPQVATLDSHAGNLPREGAVLIVTASYNGHPPDNAKQFVDWLDQASADEVKGVRYSVFGCGDKNWATTYQKVPAFIDETLAAKGAENIADRGEADASDDFEGTYEEWREHMWSDVAAYFNLDIENSEDNKSTLSLQFVDSAADMPLAKMHGAFSTNVVASKELQQPGSARSTRHLEIELPKEASYQEGDHLGVIPRNYEGIVNRVTARFGLDASQQIRLEAEEEKLAHLPLAKTVSVEELLQYVELQDPVTRTQLRAMAAKTVCPPHKVELEALLEKQAYKEQVLAKRLTMLELLEKYPACEMKFSEFIALLPSIRPRYYSISSSPRVDEKQASITVSVVSGEAWSGYGEYKGIASNYLAELQEGDTITCFISTPQSEFTLPKDPETPLIMVGPGTGVAPFRGFVQARKQLKEQGQSLGEAHLYFGCRSPHEDYLYQEELENAQSEGIITLHTAFSRMPNQPKTYVQHVMEQDGKKLIELLDQGAHFYICGDGSQMAPAVEATLMKSYADVHQVSEADARLWLQQLEEKGRYAKDVWAG
modifications: cytochrome P450NADPH-P-450 reductase precursor, cytochrome P450 (BM3), CYP102A1
notes: 9-10A TS + F87V, L75A, L181A, T268A
**Q.** For B1, which TTn [1] is on record?
**A.** Its TTn is 238.

**Q.** And the “% Yield” value ([1]; product 4.3)?
**A.** Its value is 24%.

**Q.** And the “ee (cis)” value ([2]; (R,S)-(S,R), chiral β-CDX GC)?
**A.** The value was −94.

**Q.** What about the de ([2]; diastereomeric excess = ([cis] − [trans])/([cis] + [trans])) of the same molecule?
**A.** Its de is −8.

**Q.** What about the Absolute activity ([2]; sum of the area of the cyclopropane peaks over the area of the internal standard) of the same molecule?
**A.** Its Absolute activity is 0.06642.
